Measurements as given in patent US20260167699A1 (Chugai, published 2026).

Target: T1, FcγRIIIa extracellular domain, C-terminal His tag (human, UniProt P08637 17-208)
T1 construct: extracellular domain; also called 3a
Test: SPR, binding activity relative to GpH7-A5/GpH7-B3/GpL16-k0 (=100)

T1 sequence (P08637 other isoform, or with tags, fused parts or gaps): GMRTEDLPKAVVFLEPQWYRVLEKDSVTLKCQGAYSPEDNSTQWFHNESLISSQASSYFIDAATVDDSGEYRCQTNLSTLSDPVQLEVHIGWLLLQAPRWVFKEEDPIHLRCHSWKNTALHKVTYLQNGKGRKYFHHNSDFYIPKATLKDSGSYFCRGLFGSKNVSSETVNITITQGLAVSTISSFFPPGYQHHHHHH

B1: GpH7-A5/GpH7-B3 variant Q295_15Y/GpL16-k0 (antibody, human IgG1, kappa)
heavy 1: not shown
heavy 2: not shown
light: DIVMTQSPLSLPVTPGEPASISCQASESLVHSNRNTYLHWYLQKPGQSPQLLIYKVSNRFSGVPDRFSGSGSGTDFTLKISRVEAEDVGVYYCSQNTHVPPTFGQGTKVEIERTVAAPSVFIFPPSDEQLKSGTASVVCLLNNFYPREAKVQWKVDNALQSGNSQESVTEQDSKDSTYSLSSTLTLSKADYEKHKVYACEVTHQGLSSPVTKSFNRGEC
notes: He Ab; copies: 1 + 1 + 2
- He/Con 3a: 81.5%

B2: GpH7-A5/GpH7-B3 variant S298_07I/GpL16-k0 (antibody, human IgG1, kappa)
heavy 1: not shown
heavy 2: not shown
light: B1 light
notes: He Ab; copies: 1 + 1 + 2
- He/Con 3a: 90.7%

B3: GpH7-A5/GpH7-B3 variant S298_19Q/GpL16-k0 (antibody, human IgG1, kappa)
heavy 1: not shown
heavy 2: not shown
light: B1 light
notes: He Ab; copies: 1 + 1 + 2
- He/Con 3a: 70.6%

B4: GpH7-A5/GpH7-B3 variant S239_18N/GpL16-k0 (antibody, human IgG1, kappa)
heavy 1: not shown
heavy 2: not shown
light: B1 light
notes: He Ab; copies: 1 + 1 + 2
- He/Con 3a: 104%

B5: GpH7-A5/GpH7-B3 variant S267_18N/GpL16-k0 (antibody, human IgG1, kappa)
heavy 1: not shown
heavy 2: not shown
light: B1 light
notes: He Ab; copies: 1 + 1 + 2
- He/Con 3a: 52%

B6: GpH7-A5/GpH7-B3 variant S298_18N/GpL16-k0 (antibody, human IgG1, kappa)
heavy 1: not shown
heavy 2: not shown
light: B1 light
notes: He Ab; copies: 1 + 1 + 2
- He/Con 3a: 51.4%

B7: GpH7-A5/GpH7-B3 variant S239_06M/GpL16-k0 (antibody, human IgG1, kappa)
heavy 1: not shown
heavy 2: not shown
light: B1 light
notes: He Ab; copies: 1 + 1 + 2
- He/Con 3a: 73.9%

B8: GpH7-A5/GpH7-B3 variant S298_12R/GpL16-k0 (antibody, human IgG1, kappa)
heavy 1: not shown
heavy 2: not shown
light: B1 light
notes: He Ab; copies: 1 + 1 + 2
- He/Con 3a: 52.1%

B9: GpH7-A5/GpH7-B3 variant S298_03V/GpL16-k0 (antibody, human IgG1, kappa)
heavy 1: not shown
heavy 2: not shown
light: B1 light
notes: He Ab; copies: 1 + 1 + 2
- He/Con 3a: 103%

B10: GpH7-A5/GpH7-B3 variant S239_14T/GpL16-k0 (antibody, human IgG1, kappa)
heavy 1: not shown
heavy 2: not shown
light: B1 light
notes: He Ab; copies: 1 + 1 + 2
- He/Con 3a: 93%

B11: GpH7-A5/GpH7-B3 variant S298_09D/GpL16-k0 (antibody, human IgG1, kappa)
heavy 1: not shown
heavy 2: not shown
light: B1 light
notes: He Ab; copies: 1 + 1 + 2
- He/Con 3a: 62.7%

B12: GpH7-A5/GpH7-B3 variant S324_01G/GpL16-k0 (antibody, human IgG1, kappa)
heavy 1: not shown
heavy 2: not shown
light: B1 light
notes: He Ab; copies: 1 + 1 + 2
- He/Con 3a: 114%

B13: GpH7-A5/GpH7-B3 variant S298_14T/GpL16-k0 (antibody, human IgG1, kappa)
heavy 1: not shown
heavy 2: not shown
light: B1 light
notes: He Ab; copies: 1 + 1 + 2
- He/Con 3a: 106%

B14: GpH7-A5/GpH7-B3 variant S298_06M/GpL16-k0 (antibody, human IgG1, kappa)
heavy 1: not shown
heavy 2: not shown
light: B1 light
notes: He Ab; copies: 1 + 1 + 2
- He/Con 3a: 87.2%

B15: GpH7-A5/GpH7-B3 variant S239_08L/GpL16-k0 (antibody, human IgG1, kappa)
heavy 1: not shown
heavy 2: not shown
light: B1 light
notes: He Ab; copies: 1 + 1 + 2
- He/Con 3a: 90%

B16: GpH7-A5/GpH7-B3 variant S298_01G/GpL16-k0 (antibody, human IgG1, kappa)
heavy 1: not shown
heavy 2: not shown
light: B1 light
notes: He Ab; copies: 1 + 1 + 2
- He/Con 3a: 74.9%

B17: GpH7-A5/GpH7-B3 variant S239_02A/GpL16-k0 (antibody, human IgG1, kappa)
heavy 1: not shown
heavy 2: not shown
light: B1 light
notes: He Ab; copies: 1 + 1 + 2
- He/Con 3a: 70.9%

B18: GpH7-A5/GpH7-B3 variant S239_01G/GpL16-k0 (antibody, human IgG1, kappa)
heavy 1: not shown
heavy 2: not shown
light: B1 light
notes: He Ab; also called 3239_01G; copies: 1 + 1 + 2
- He/Con 3a: 72%

B19: GpH7-A5/GpH7-B3 variant S239_03V/GpL16-k0 (antibody, human IgG1, kappa)
heavy 1: not shown
heavy 2: not shown
light: B1 light
notes: He Ab; copies: 1 + 1 + 2
- He/Con 3a: 72.4%

B20: GpH7-A5/GpH7-B3 variant S324_03V/GpL16-k0 (antibody, human IgG1, kappa)
heavy 1: not shown
heavy 2: not shown
light: B1 light
notes: He Ab; copies: 1 + 1 + 2
- He/Con 3a: 101%

B21: GpH7-A5/GpH7-B3 variant S239_19Q/GpL16-k0 (antibody, human IgG1, kappa)
heavy 1: not shown
heavy 2: not shown
light: B1 light
notes: He Ab; copies: 1 + 1 + 2
- He/Con 3a: 53.8%

B22: GpH7-A5/GpH7-B3 variant S267_19Q/GpL16-k0 (antibody, human IgG1, kappa)
heavy 1: not shown
heavy 2: not shown
light: B1 light
notes: He Ab; copies: 1 + 1 + 2
- He/Con 3a: 64.3%

B23: GpH7-A5/GpH7-B3 variant S267_01G/GpL16-k0 (antibody, human IgG1, kappa)
heavy 1: not shown
heavy 2: not shown
light: B1 light
notes: He Ab; copies: 1 + 1 + 2
- He/Con 3a: 53.3%

B24: GpH7-A5/GpH7-B3 variant S298_15Y/GpL16-k0 (antibody, human IgG1, kappa)
heavy 1: not shown
heavy 2: not shown
light: B1 light
notes: He Ab; copies: 1 + 1 + 2
- He/Con 3a: 80.6%

B25: GpH7-A5/GpH7-B3 variant S298_11K/GpL16-k0 (antibody, human IgG1, kappa)
heavy 1: not shown
heavy 2: not shown
light: B1 light
notes: He Ab; copies: 1 + 1 + 2
- He/Con 3a: 50%

B26: GpH7-A5/GpH7-B3 variant S239_09D/GpL16-k0 (antibody, human IgG1, kappa)
heavy 1: not shown
heavy 2: not shown
light: B1 light
notes: He Ab; copies: 1 + 1 + 2
- He/Con 3a: 156%

B27: GpH7-A5/GpH7-B3 variant S239_07I/GpL16-k0 (antibody, human IgG1, kappa)
heavy 1: not shown
heavy 2: not shown
light: B1 light
notes: He Ab; copies: 1 + 1 + 2
- He/Con 3a: 75%

B28: GpH7-A5/GpH7-B3 variant S267_06M/GpL16-k0 (antibody, human IgG1, kappa)
heavy 1: not shown
heavy 2: not shown
light: B1 light
notes: He Ab; copies: 1 + 1 + 2
- He/Con 3a: 65.3%

B29: GpH7-A5/GpH7-B3 variant S298_02A/GpL16-k0 (antibody, human IgG1, kappa)
heavy 1: not shown
heavy 2: not shown
light: B1 light
notes: He Ab; copies: 1 + 1 + 2
- He/Con 3a: 151%

B30: GpH7-A5/GpH7-B3 variant S267_10E/GpL16-k0 (antibody, human IgG1, kappa)
heavy 1: not shown
heavy 2: not shown
light: B1 light
notes: He Ab; copies: 1 + 1 + 2
- He/Con 3a: 90.9%

B31: GpH7-A5/GpH7-B3 variant S267_02A/GpL16-k0 (antibody, human IgG1, kappa)
heavy 1: not shown
heavy 2: not shown
light: B1 light
notes: He Ab; copies: 1 + 1 + 2
- He/Con 3a: 149%

B32: GpH7-A5/GpH7-B3 variant S324_02A/GpL16-k0 (antibody, human IgG1, kappa)
heavy 1: not shown
heavy 2: not shown
light: B1 light
notes: He Ab; copies: 1 + 1 + 2
- He/Con 3a: 113%

B33: GpH7-A5/GpH7-B3 variant S324_04F/GpL16-k0 (antibody, human IgG1, kappa)
heavy 1: not shown
heavy 2: not shown
light: B1 light
notes: He Ab; copies: 1 + 1 + 2
- He/Con 3a: 99.3%

B34: GpH7-A5/GpH7-B3 variant Q295_16H/GpL16-k0 (antibody, human IgG1, kappa)
heavy 1: not shown
heavy 2: not shown
light: B1 light
notes: He Ab; copies: 1 + 1 + 2
- He/Con 3a: 80.2%

B35: GpH7-A5/GpH7-B3 variant S267_09D/GpL16-k0 (antibody, human IgG1, kappa)
heavy 1: not shown
heavy 2: not shown
light: B1 light
notes: He Ab; copies: 1 + 1 + 2
- He/Con 3a: 179%

B36: GpH7-A5/GpH7-B3 variant S298_04F/GpL16-k0 (antibody, human IgG1, kappa)
heavy 1: not shown
heavy 2: not shown
light: B1 light
notes: He Ab; copies: 1 + 1 + 2
- He/Con 3a: 77.6%

B37: GpH7-A5/GpH7-B3 variant S298_08L/GpL16-k0 (antibody, human IgG1, kappa)
heavy 1: not shown
heavy 2: not shown
light: B1 light
notes: He Ab; copies: 1 + 1 + 2
- He/Con 3a: 69.2%

B38: GpH7-A5/GpH7-B3 variant Q295_18N/GpL16-k0 (antibody, human IgG1, kappa)
heavy 1: not shown
heavy 2: not shown
light: B1 light
notes: He Ab; copies: 1 + 1 + 2
- He/Con 3a: 85.7%

B39: GpH7-A5/GpH7-B3 variant S298_16H/GpL16-k0 (antibody, human IgG1, kappa)
heavy 1: not shown
heavy 2: not shown
light: B1 light
notes: He Ab; copies: 1 + 1 + 2
- He/Con 3a: 71.9%

B40: GpH7-A5/GpH7-B3 variant S239_10E/GpL16-k0 (antibody, human IgG1, kappa)
heavy 1: not shown
heavy 2: not shown
light: B1 light
notes: He Ab; copies: 1 + 1 + 2
- He/Con 3a: 171%
